The values that follow come from patent US20220220166, “PPR PROTEIN CAUSING LESS AGGREGATION AND USE OF THE SAME” (EditForce, Inc., published 2022).

Holding throughout (test): vs PPRcag_1; streptavidin plate luciferase assay, RT
What all share (conditions): tags: N-terminal luciferase (Nluc), C-terminal 6xHis; label: 5'-biotin

The target in data set [1] is T1, PPRcag_3 (6N9Q), Nluc-PPR-His6 (synthetic construct).
T1 chain: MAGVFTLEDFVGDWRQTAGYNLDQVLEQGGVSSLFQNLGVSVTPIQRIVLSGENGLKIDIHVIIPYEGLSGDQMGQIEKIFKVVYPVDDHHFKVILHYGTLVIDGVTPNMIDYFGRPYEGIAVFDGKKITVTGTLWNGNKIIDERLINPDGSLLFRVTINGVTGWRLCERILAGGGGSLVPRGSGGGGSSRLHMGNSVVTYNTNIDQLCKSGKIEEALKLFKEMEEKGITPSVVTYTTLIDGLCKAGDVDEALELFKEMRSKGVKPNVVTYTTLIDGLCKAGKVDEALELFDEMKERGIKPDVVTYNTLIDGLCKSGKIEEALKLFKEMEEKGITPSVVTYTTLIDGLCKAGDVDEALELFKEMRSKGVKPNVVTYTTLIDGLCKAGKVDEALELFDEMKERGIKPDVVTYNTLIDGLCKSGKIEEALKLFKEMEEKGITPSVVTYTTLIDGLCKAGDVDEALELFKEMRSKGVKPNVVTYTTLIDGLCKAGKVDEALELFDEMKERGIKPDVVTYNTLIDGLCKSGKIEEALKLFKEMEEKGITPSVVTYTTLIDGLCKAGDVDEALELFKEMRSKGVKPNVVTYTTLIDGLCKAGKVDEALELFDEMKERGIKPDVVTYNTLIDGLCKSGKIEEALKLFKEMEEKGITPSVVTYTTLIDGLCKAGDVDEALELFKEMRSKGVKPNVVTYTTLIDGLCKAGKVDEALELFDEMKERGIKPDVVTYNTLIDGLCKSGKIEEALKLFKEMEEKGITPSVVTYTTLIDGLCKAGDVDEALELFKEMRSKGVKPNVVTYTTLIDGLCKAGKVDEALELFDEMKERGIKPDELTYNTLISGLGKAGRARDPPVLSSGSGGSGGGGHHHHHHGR
The procedure: (§1) The binding experiment for PPR protein and RNA was performed by an experimental method for binding of PPR protein and biotinylated RNA on a streptavidin plate.
(§2) There were synthesized RNA probes of 30-base RNAs containing the target CAGx6 sequence, untargeted CGGx6, CUGx6, and CCGx6, and the Dlb ([…]) sequence (positions 8 to 25 of SEQ ID NO: 42) modified with biotin at the 5′-end (in that order, SEQ ID NOS: 38 to 42, respectively) (Grainer). To a streptavidin-coated plate (Thermo Fisher, Cat. No. 15502), the 5′-end biotinylated RNA probes were added, reaction was allowed at room temperature for 30 minutes, and the plate was washed with a probe washing buffer (20 mM Tris-HCl, pH 7.6, 150 mM NaCl, 5 mM MgCl₂, 0.5% NP-40, 1 mM DTT, 0.1% BSA). For background measurement, wells to which biotinylated RNA was not added, but the lysis buffer was added were also prepared. Then, a blocking buffer (20 mM Tris-HCl, pH 7.6, 150 mM NaCl, 5 mM MgCl₂, 0.5% NP-40, 1 mM […], 1% BSA) was added, and the plate surface was blocked at room temperature for 30 minutes. Then, 100 μL of the E. coli lysate containing luciferase-fused PPR protein having a luminescence of 1.5×10⁸ LU/μL was added, and the binding reaction was allowed at room temperature for 30 minutes. Then, the plate was washed 5 times with 200 μL of a washing buffer (20 mM Tris-HCl, pH 7.6, 150 mM NaCl, 5 mM MgCl₂, 0.5% NP-40, 1 mM DTT). To each well, 40 μL of luciferase substrate (Promega, E151A) diluted 2,500-fold with the washing buffer was added, reaction was allowed for 5 minutes, and then luminescence was measured with a plate reader (PerkinElmer, Cat. No. 5103-35).

In data set [2] the target is T2, PPRcag_5 (6N9K), Nluc-PPR-His6 (synthetic construct).
T2 chain: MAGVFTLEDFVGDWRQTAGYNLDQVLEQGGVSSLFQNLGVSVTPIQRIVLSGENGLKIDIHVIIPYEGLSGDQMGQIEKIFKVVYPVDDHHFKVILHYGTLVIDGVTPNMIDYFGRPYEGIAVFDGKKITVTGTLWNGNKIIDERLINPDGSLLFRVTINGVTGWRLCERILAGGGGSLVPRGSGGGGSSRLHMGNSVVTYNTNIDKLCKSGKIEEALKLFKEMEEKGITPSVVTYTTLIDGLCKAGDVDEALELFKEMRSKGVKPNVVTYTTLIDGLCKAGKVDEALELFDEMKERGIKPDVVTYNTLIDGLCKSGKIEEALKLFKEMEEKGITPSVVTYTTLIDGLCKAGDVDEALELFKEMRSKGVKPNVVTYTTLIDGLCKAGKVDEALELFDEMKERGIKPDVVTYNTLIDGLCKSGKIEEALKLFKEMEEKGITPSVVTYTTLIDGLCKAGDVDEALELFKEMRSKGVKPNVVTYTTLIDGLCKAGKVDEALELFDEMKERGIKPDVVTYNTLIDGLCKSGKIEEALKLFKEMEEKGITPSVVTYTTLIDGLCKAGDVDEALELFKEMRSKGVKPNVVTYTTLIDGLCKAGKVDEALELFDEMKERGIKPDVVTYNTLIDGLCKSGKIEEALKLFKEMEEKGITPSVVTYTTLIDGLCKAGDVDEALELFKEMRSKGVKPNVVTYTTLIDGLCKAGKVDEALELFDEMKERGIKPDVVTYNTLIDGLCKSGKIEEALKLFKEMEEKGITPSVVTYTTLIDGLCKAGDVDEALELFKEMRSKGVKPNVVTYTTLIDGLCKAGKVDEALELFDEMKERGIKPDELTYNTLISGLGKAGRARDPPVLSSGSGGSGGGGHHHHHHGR
The protocol:
as §1, §2

Data set [3] deals with T3, PPRcag_4 (6N9E), Nluc-PPR-His6 (synthetic construct).
T3 chain: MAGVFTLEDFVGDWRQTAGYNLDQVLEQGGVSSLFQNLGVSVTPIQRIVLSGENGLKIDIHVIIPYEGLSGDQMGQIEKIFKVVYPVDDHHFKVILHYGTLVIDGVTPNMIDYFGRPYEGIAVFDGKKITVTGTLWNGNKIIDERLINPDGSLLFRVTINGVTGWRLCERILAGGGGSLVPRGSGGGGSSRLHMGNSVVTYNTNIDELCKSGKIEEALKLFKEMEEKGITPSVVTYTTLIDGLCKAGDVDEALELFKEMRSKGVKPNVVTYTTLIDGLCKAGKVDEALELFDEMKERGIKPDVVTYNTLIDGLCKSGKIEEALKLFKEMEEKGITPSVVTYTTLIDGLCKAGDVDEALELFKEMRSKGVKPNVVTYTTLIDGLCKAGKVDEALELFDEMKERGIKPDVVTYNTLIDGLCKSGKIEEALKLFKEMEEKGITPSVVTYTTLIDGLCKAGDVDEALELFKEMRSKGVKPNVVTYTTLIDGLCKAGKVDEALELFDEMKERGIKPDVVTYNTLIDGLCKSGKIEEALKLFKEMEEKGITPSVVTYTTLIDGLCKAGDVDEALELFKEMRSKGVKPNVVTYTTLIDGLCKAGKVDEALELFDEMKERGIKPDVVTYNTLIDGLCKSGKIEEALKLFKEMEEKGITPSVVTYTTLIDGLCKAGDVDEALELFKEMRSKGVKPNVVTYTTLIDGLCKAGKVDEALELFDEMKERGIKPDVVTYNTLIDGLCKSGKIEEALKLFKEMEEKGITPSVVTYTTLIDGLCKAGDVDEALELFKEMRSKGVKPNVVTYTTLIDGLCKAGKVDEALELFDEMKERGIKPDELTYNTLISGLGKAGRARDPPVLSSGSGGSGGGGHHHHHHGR
The procedure: as §1, §2

The target in data set [4] is T4, PPRcag_6 (6D9G), Nluc-PPR-His6 (synthetic construct).
T4 chain: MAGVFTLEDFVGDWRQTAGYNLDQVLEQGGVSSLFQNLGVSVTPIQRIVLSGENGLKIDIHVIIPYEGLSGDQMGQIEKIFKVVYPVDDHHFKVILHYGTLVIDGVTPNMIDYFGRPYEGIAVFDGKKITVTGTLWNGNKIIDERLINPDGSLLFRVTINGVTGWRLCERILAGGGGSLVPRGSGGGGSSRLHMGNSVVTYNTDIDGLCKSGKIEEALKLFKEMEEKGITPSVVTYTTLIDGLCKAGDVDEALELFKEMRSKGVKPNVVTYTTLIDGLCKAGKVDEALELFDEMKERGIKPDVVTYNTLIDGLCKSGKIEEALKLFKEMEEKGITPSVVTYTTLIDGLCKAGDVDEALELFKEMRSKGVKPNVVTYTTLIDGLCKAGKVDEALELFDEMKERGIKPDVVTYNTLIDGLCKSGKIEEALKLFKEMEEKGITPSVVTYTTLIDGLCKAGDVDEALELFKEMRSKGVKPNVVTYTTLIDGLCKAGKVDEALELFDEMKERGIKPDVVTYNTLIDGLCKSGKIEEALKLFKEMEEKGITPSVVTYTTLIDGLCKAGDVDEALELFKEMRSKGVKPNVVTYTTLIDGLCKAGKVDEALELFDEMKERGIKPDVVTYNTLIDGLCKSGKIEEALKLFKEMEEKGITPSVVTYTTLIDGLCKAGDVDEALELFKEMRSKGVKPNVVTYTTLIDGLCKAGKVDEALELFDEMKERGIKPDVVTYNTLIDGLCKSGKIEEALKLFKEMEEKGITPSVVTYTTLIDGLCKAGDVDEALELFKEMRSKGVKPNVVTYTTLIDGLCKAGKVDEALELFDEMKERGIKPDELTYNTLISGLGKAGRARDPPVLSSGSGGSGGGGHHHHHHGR
The procedure:
as §1, §2

With GACAUGCCAGCAGCAGCAGCAGCAGGACUG (ssRNA) [CAGx6 RNA probe], the binding signal is around 80% in data set [1], around 120% in data set [2], around 60% in data set [3] and around 130% in data set [4].
